The source of these data is publication PMC10564622 (Free Radical Biology & Medicine, 2023).

Several values for one entry are separate records, joined by “and”; a condition that tells them apart may be missing. Equal entries are not always repeated. A value given as a limit tells only on which side of the number the result lay.

One may read the stoichiometry N as the number of molecules, sites or subunits per partner or assembly.

Holding throughout (settings): both partners purified
The target of assay [1] is T1, CoraFluor-1-labeled KLHL11_(BTB-BACK) (human, UniProt Q9NVR0 67-340, CoraFluor-1 by direct acylation with CoraFluor-1-Pfp (sites not given)).
T1 construct: human KLHL11, Uniprot Q9NVR0, residues 67–340, vector pNIC28-Bsa4; source: E. coli BL21(DE3)-pRARE2, purified (nickel sepharose, TEV cleavage, SEC), labeled with CoraFluor-1-Pfp; not shown: His6, N-terminal, cleaved
T1 sequence (looked up): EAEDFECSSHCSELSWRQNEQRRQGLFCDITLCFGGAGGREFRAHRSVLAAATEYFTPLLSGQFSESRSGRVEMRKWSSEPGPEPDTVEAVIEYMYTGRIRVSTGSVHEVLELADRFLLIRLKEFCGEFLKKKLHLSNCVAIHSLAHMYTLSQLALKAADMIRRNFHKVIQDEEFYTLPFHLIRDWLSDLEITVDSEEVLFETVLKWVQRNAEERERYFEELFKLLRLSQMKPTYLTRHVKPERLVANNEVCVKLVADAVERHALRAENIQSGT
The assay is described as follows: FRET or BRET; TR-FRET protein displacement assay: CoraFluor-1-labeled KLHL11_(BTB-BACK) + AF488-labeled CUL3NTD, unlabeled protein titrated (cmax 25 μM); assay buffer pH 7.5, 2 h, room temperature; KD from IC50 by Cheng-Prusoff. On the technique in general: Bioluminescence resonance energy transfer reports proximity on the nanometre scale.

The target in assay [2] is CoraFluor-1-labeled KEAP1FL (full-length, untagged KEAP1, residues 1–624) (human, UniProt Q14145 1-624, CoraFluor-1 by direct acylation with CoraFluor-1-Pfp (sites not given)). Nature of the assay: FRET or BRET; TR-FRET protein displacement assay: CoraFluor-1-labeled KEAP1FL + AF488-labeled CUL3NTD, unlabeled protein titrated (cmax 25 μM); assay buffer pH 7.5, 2 h, room temperature; KD from IC50 by Cheng-Prusoff.

Assay [3] has as its target biotinylated CUL3NTD (residues 1–389) (human, UniProt Q13618 1-389, I342R | L346D, biotin (on the avi tag)). The assay is described as follows: BLI; biotinylated CUL3NTD immobilised on streptavidin tips, KEAP1_(BTB-3-box) in serial dilution; 50 mM HEPES, 300 mM NaCl, 0.5 mM TCEP, 10 mM DTT, 0.01% TWEEN-20; steady-state and kinetic fits, 1:1 model; apparent.
Assay [4] addresses T2, CUL3NTD (CUL3 N-terminal domain, residues 1–388, I342R L346D) (human, UniProt Q13618 1-388, I342R | L346D).
T2 construct: human CUL3, Uniprot Q13618, residues 1–388, vector pNIC-CTHF, with stabilising mutations I342R and L346D (split-n-express); source: E. coli BL21(DE3)-pRARE2, purified (nickel sepharose, TEV cleavage, SEC); not shown: His6, C-terminal, cleaved; FLAG, C-terminal, cleaved
The assay is described as follows: crystal structure; KEAP1_(BTB-3-box) and CUL3NTD mixed 1:1, purified by SEC; sitting drop at 20 °C, 20% PEG 3350, 10% ethylene glycol, 0.2 M potassium citrate tribasic; 3.45 Å, space group C2 2 2_(1). (Size exclusion chromatography separates by hydrodynamic size, large species first.)

For assay [5], the target named is T3, AF488-labeled CUL3NTD (human, UniProt Q13618 1-388, I342R | L346D, AF488 by direct acylation with AF488-Tfp (sites not given)).
T3 construct: human CUL3, Uniprot Q13618, residues 1–388, vector pNIC-CTHF, with stabilising mutations I342R and L346D; also called AF488-CUL3NTD; source: E. coli BL21(DE3)-pRARE2, purified (nickel sepharose, TEV cleavage, SEC), labeled with AF488-Tfp; not shown: His6, C-terminal, cleaved; FLAG, C-terminal, cleaved
Nature of the assay: FRET or BRET; TR-FRET protein displacement assay: CoraFluor-1-labeled KLHL11_(BTB-BACK) + AF488-labeled CUL3NTD, unlabeled protein titrated (cmax 25 μM); assay buffer pH 7.5, 2 h, room temperature; KD from IC50 by Cheng-Prusoff.

Assay [6] deals with T3, AF488-labeled CUL3NTD. Nature of the assay: FRET or BRET; TR-FRET protein displacement assay: CoraFluor-1-labeled KEAP1FL + AF488-labeled CUL3NTD, unlabeled protein titrated (cmax 25 μM); assay buffer pH 7.5, 2 h, room temperature; KD from IC50 by Cheng-Prusoff.

T3 sequence (Q13618 1-388 I342R/L346D): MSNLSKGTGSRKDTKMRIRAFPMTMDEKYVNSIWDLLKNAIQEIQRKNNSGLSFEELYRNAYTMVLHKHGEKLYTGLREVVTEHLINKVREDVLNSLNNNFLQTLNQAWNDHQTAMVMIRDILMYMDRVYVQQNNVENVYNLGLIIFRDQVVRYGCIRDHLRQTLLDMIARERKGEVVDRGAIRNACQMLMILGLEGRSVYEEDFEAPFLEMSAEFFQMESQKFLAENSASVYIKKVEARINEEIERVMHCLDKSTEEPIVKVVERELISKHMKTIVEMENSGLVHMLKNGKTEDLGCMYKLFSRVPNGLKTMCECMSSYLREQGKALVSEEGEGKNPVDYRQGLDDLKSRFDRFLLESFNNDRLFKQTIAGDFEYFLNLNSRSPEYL
Chain of biotinylated CUL3NTD (residues 1–389) (Q13618 1-389 I342R/L346D): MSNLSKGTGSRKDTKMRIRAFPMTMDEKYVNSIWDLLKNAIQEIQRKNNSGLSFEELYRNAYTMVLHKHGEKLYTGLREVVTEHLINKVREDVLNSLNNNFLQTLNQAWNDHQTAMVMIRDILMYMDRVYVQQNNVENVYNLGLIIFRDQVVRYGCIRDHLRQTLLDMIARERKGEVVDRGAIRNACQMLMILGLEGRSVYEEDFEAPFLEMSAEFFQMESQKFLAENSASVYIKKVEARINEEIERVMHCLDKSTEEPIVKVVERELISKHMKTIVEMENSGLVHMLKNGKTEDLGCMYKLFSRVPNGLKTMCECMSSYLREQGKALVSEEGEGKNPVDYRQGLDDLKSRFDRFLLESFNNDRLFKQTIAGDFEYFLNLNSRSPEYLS
T2 sequence (Q13618 1-388 I342R/L346D): as the sequence (Q13618 1-388 I342R/L346D) above
Chain of CoraFluor-1-labeled KEAP1FL (full-length, untagged KEAP1, residues 1–624) (Q14145 whole entry, the tested form may be a part): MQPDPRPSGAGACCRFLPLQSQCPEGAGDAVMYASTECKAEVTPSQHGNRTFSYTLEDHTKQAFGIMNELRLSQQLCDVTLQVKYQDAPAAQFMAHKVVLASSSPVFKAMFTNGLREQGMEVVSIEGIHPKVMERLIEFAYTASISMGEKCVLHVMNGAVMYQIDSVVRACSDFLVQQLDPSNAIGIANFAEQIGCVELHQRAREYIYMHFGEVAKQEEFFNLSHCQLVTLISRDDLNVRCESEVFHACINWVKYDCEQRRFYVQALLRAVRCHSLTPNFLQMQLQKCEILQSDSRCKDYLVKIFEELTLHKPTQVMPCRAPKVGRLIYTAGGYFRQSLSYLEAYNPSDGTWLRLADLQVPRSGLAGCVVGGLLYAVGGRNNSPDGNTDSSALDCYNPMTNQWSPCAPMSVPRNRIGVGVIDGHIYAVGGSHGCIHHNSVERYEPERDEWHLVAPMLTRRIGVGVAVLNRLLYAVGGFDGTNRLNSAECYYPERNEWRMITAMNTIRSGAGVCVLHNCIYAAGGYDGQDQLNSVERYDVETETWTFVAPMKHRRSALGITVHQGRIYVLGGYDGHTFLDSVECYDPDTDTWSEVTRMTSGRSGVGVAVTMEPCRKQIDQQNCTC

B1: CUL3_(NTDΔ22) (CUL3 residues 23–388, I342R L346D) (domain or fragment, human, UniProt Q13618 23-388, looked up)
chain: MTMDEKYVNSIWDLLKNAIQEIQRKNNSGLSFEELYRNAYTMVLHKHGEKLYTGLREVVTEHLINKVREDVLNSLNNNFLQTLNQAWNDHQTAMVMIRDILMYMDRVYVQQNNVENVYNLGLIIFRDQVVRYGCIRDHLRQTLLDMIARERKGEVVDRGAIRNACQMLMILGLEGRSVYEEDFEAPFLEMSAEFFQMESQKFLAENSASVYIKKVEARINEEIERVMHCLDKSTEEPIVKVVERELISKHMKTIVEMENSGLVHMLKNGKTEDLGCMYKLFSRVPNGLKTMCECMSSYLREQGKALVSEEGEGKNPVDYRQGLDDLKSRFDRFLLESFNNDRLFKQTIAGDFEYFLNLNSRSPEYL
notes: human CUL3, Uniprot Q13618, residues 23–388, vector pNIC-CTHF, with stabilising mutations I342R and L346D; also called CUL3_(NTDΔN22); source: E. coli BL21(DE3)-pRARE2, purified (nickel sepharose, TEV cleavage, SEC); not shown: His6, C-terminal, cleaved; FLAG, C-terminal, cleaved
B1: the “fold decrease of affinity against CUL3NTD” value in assay [1] was greater than 200 fold. Further, in assay [2], the Kd amounted to 13800 nM.

B2: KEAP1_(BTB-3-box) (human KEAP1 residues 48–213) (domain or fragment, UniProt Q14145 48-213, looked up)
chain: GNRTFSYTLEDHTKQAFGIMNELRLSQQLCDVTLQVKYQDAPAAQFMAHKVVLASSSPVFKAMFTNGLREQGMEVVSIEGIHPKVMERLIEFAYTASISMGEKCVLHVMNGAVMYQIDSVVRACSDFLVQQLDPSNAIGIANFAEQIGCVELHQRAREYIYMHFGE
notes: human KEAP1 (KLHL19), Uniprot Q14145, residues 48–213 (BTB and 3-box), vector pNIC28-Bsa4; Homodimer through the BTB domain by crystallographic symmetry; Residues 51–204 modelled in the structure; also called BTB and 3-box domains of human KEAP1; source: E. coli BL21(DE3)-pRARE2, purified (nickel sepharose, TEV cleavage, SEC); not shown: His6, N-terminal, cleaved
As to B2, the Kd is 1700 nM and 1400 nM in assay [3]; 720 nM in the assay with AF488-labeled CUL3NTD [5]; 1040 nM with AF488-labeled CUL3NTD [6]. The “stoichiometry N” value in assay [4] is 1 KEAP1 per CUL3 (printed as 2:2).
